# Experimental data taken from paper PMC8853325.
# B1: His6-WbpX (Pseudomonas aeruginosa) (protein)
# chain: MTRLLVECTYVFEHPKVNSGIQRVVRNVIRELPEADETVECIPVAMLDGTLYQVHSLAPLDPRPHSPLVRLRILVERAANYFWLGQRTLEKRRPFRSSPWARRLLYVACRLFAFAFLSIPLRLLDRILGKQQPAPVRATPLEHRAGDQLVLLDSSWHADFFPLAERLKSEGVGIVSVIYDLIPLTHPQFCDAGLVKVFNHWFDWIAATADGYVAISETIRDEVRAEMLRRIGPEKVAQRWFDYFHLGSELDLVEDGASVEPDLLRMFKAKAPVFLMVSTIEPRKNHGYLLDAFERAWAQGSQARLCIAGRIGWKCEALVERVRQHPELNKRLFMFNDLSDKSLEYAYSHAASLVFPSYVEGFGLPLVEAMQRGLPAMGSDIPVFREIGGEFMAYFDLADPQTLANLVTRFEATGEFPAERPVGEWRWIGWHEASRQLIARILLALGKAPAHGEAVHADCG
# How the values were obtained:
# [1] = substrate: CC(=O)N[C@H]1[C@@H](OP(=O)(O)OP(=O)(O)OCCCCCCCCCCCOc2ccccc2)O[C@H](CO)[C@@H](O)[C@@H]1O[C@H]1O[C@H](C)[C@@H](O)[C@H](O)[C@@H]1O; assay: cells, lysate or membranes; conditions: donor GDP-D-[^3H]Rha, 5 mM MnCl2, Tris pH 9, 37 °C
# [2] = substrate: C[C@H]1O[C@H](OCc2ccccc2)[C@@H](O)[C@@H](O)[C@@H]1O; assay: cells, lysate or membranes; conditions: donor GDP-D-[^3H]Rha, 5 mM MnCl2, Tris pH 9, 37 °C
protein,measurement,setting,value
B1,Km,[1],220 µM
same,Km,[2],21 µM
